{"source": "patent US20150299272A1", "about": "(UNIVERSITY OF NEWCASTLE UPON TYNE, published 2015)", "binders": {"B1": {"name": "Caf1 WT (naturally occurring Caf1 polypeptide monomer from Yersinia pestis; fraction 1 antigen polymer) (other)", "chain": "ADLTASTTATATLVEPARITLTYKEGAPITIMDNGNIDTELLVGTLTLGGYKTGTTSTSVNFTDAAGDPMYLTFTSQDGNNHQFTTKVIGKDSRDFDISPKVNGENLVGDDVVLATGSQDFFVRSIGSKGGKLAAGKYTDAVTVTVSNQ"}}, "key": {"[1]": {"biological_target": "the molecule itself", "experiment": "Superdex 200 gel filtration (self-association)"}, "[2]": {"biological_target": "Caf1-6His NT + Spacer linking peptide (Yersinia pestis)", "experiment": "co-expression in E. coli, western blot of partly heat-dissociated polymer"}}}
{"binder": "B1", "values": [{"measurement": "binding result", "setting": "[1]", "result": "binds"}, {"measurement": "binding result", "setting": "[2]", "result": "binds"}]}
